Reference: paper PMC4447588

Experiments:
[1] = tested on: NC(=O)C1=CN([C@@H]2O[C@H](COP(=O)(O)OP(=O)(O)OC[C@H]3O[C@@H](n4cnc5c(N)ncnc54)[C@H](OP(=O)(O)O)[C@@H]3O)[C@@H](O)[C@H]2O)C=CC1; test: purified protein; settings: FMN, pH 7.0, 37 °C
[2] = tested on: Cc1cc2nc3c(=O)[nH]c(=O)nc-3n(C[C@H](O)[C@H](O)[C@H](O)COP(=O)(O)O)c2cc1C; test: purified protein; settings: NADPH, pH 7.0, 37 °C, varied: cofactor

Q: Which Km [1] does the source give for PpArsH (Pseudomonas putida KT2440) here?
A: Its Km is 74 µM.

Q: What about the K0.5 [2] of the same substance?
A: The K0.5 was 7.8 µM.
